Experimental data taken from the DeepSol protein solubility set.

Experiment: soluble on expression in E. coli; label from the status in PepcDB or PDB records

| Sequence | soluble on expression in E. coli |
| --- | --- |
| MKPEDFRTDNKRPLTGEEYLKSLQDGREIYIYGERVKDVTTHPAFRNAAASVAQLYDALHKPSMQDTLCWNTDTGSGGYTHKFFRVAKSADDLRQQRDAIAEWSRLSYGWMGRTPDYKAAFGCALGANPAFYGQFEQNARNWYTRIQETGLYFNHAIVNPPIDRHKPADEVKDVYIKLEKETDAGIIVSGAKVVATNSALTHYNMIGFGSAQVMGENPDFALMFVAPMDAEGVKLISRASYEMVAGATGSPFDYPLSSRFDENDAILVMDKVLIPWENVLIYRDFDRCRRWTMEGGFARMYPLQACVRLAVKLDFITALLKKSLECTGTVEFRGVQADLGEVVAWRNMFWALSDSMCSEATPWVNGAWLPDHAALQTYRVMAPMAYAKIKNIIERNVTSGLIYLPSSARDLNNPQIDQYLAKYVRGSNGMDHVERIKILKLMWDAIGSEFGGRHELYEINYSGSQDEIRLQCLRQAQSSGNMDKMMAMVDRCLSEYDQNGWTVSHLHNNDDINQLDKLLK | not soluble |
| MFTGLHDILIILFLLVTLKIAQNVDHTKFLQKYGYLTSGDNQLSSESLSDALKNMQRMAGLEETGELDERTIQMMERPRCGHPDVEDHQKSRGKRYAPPQFKWKEKIITYGCKAVGTSTRISLDDLRRTMHQAASQWSELADVEIVESSVKNPMMVISAGRENHYPCTVRFDTKTLAHAFFPTNGQIHINDRVQFAMTNYTERMGANSLYSVVAHEMGHALGFSHSPDIDSVMFAYDTPRKWKFTSMDKYNMRSYYGAKASKKENEEEERKTENEDKRRKTEKDRGRTREHESDDIRPNECRVENPIVVQYRGEYLIFKSQWVWRVSSDWKRLIIKAVPINQLFPGLPNPIDAAVTVGHNLWVFVGEMIYVIYGNHMVHAPLRLSDIGINEKYVDLAYEWHYFNPPAVYIWKGSRYWKLDEKMYHRRVDERYPKDTDLNWARVPKGVHSAFTYEKEIHLLRGNQVFRMNSSRSVFDIADGYPQPLQSFFGFCPRNEKLVLNSSSSHFSLIYATITILILIF | not soluble |
| MSLEDHAEELASDLGVDKEEVTRDLENLVNYSVPMDEAKQSLRRKYGDGSSGGDSTPSSKAINEVSTEDSNVTVTAVVLTSGRRSIQYNGEQHVIREGELADETGKISYTAWDGFSGDLQPGQTVQLGNAGVREWDGQPELNLGDSTDPEVVDETLDIDYDVGGRAALQDLAPGDRGITVEVQVLECEQKVIDGRDGETTILSGVLGDESGRLPFTDWDPHDEIEEGASVRLDETFVREFRGAPSVNVSEFSAVTALDRTVGVTEDAPRLSVREAVESGGLFDVELAGNVIEVRDGSGLIERCPECGRVIQNGQCRSHGAVEGEDDLRTKAILDDGTDTVTAVLDDELTARVYGGDLDDAREHARDAMDKEVVAERISDRIVGREYVVRGSLSVDEYGANLTASTFAEADDDPATRAQALLQEADTLEHHHHHH | soluble |
| MCMEKFYKVGTIVNTQGLQGEVRVMPSTDFAQERFSKGSVLALFDDKDNYIQDLKVKSGRPQKNFYVVKFEGFYHINDVEKYKGYIVKIAEENQEDLDDGEFYYHEIIGSDVYENDILIGQISEILQPGANDVWVVKRKGKRDLLLPYIPPVILNVDVNQHRVDVSIMEGLDDLEHHHHHH | soluble |
| MKKTIQQLVLERILILDGAMGTMIQQYNLREEDFRNERFAHIPGQLKGNNDLLCLTRPDVIRDIHRKYLEAGADIIETNTFSSTTISMADYHVQEYVREMNQAAVKLAREVADEYTALNPDKPRFVAGSVGPTNKTCSMSPDVNNPAYRAVTYDEMADAYQQQMEAMLESGVDALLIETIFDTLNAKAAILAAERAMKATGVKVPVMLSVTVSDTGGRTLSGQTLEAFLASVQHADIFSVGLNCSFGARQLKPFLEQLAARAPYYISAYPNAGLPNSLGKYDQTPADMAHEVKEYVHEGLINIIGGCCGTTDAYIAEYPALIAGAKPHIPVCKPDCMWLSGLELLEVKPEINFVNVGERCNVAGSRKF | not soluble |
| MAMTLAEKILAKASGNTQVSPGDIVMAKVETAMVHDITGPLSVNTLKKEGISKVWDNEKIVIPFDHQIPADSINAAENHILMRNFVKEQNIKHFYDIREGVCHQVLPEKGHIVPGTVVVGADSHTCTYGAFGAFATGIGSTDMAAAFATGELWFKVPET | not soluble |
| MGSDKIHHHHHHMLGRTANGLYWMFRYIERAENSARLIDAGLRMSLTRSEAAEDDWDGVLQSADVRELYDQVHEGLTSGDAIDFLLRDRTNPSSVMSCIEAGRNNARMVRTALTRETWEAINECWIEMKGILARRAKTTDMPEIIDTIKRRAGLIRGAFHGTMLRNEIFNFSRIGTFIERADNTARILDVKYYVLLPAVSAVGSSMDNVQWESILRSVSAHRSYGWVYDAELRPANIADFLIANGRMPRSLAYCYDKLVSNLGYLAREYGERHAAHETAEQTLGLLRSQSIAEIMDQGLHQYLKEFINQNNRLGREISDGYRFYQ | not soluble |
| MSLIYQTPDALDLQLDRIPSLPPPRRVVLTTPTHFDVEYVINPHMSENVGAVNTDVAWQQWKALRAAYTALDHTPVLVNGQSGLPDMVFCANQTLPFYDPASDSKGVVLSRMHSEQRADEVPYYARFFEEEGYAVDTLPEDLDADFEGMGDALWHPGHHLLWGGYGYRTSPEAYEALGDLLDVPIVALRLVDPDYYHLDTCLCPLDARHALVAPEAFDDAGRALIDALFETVIEVPDHEARHQFACNAHCPDGAHVLIQEGCEGTNAQLRNHDFVPVELDTSEFMKSGGSVFCMKQMIWEGHHHHHH | soluble |
| MSLTIDHSVTNTEQLEQQNPAIKTKLKLKKLKDQVIVITGASSGIGLVTARMAAEKGAKVVAAARNEEALKELTDELKEKGHDAIWVKADVGKEEDVNRIAETAISTFGRFDTWVNNAAVSTFGHAMDVTVEDMKRMFDTNFWGPVYGTRAAVKHYTGRGVPGALINVGSLFGDRGTVIQSTYASAKFALHGWTESIRMELEKEQAPVSVTLIHPGRIDTPYNEHAHSYLDKQPAHYRSMIYPPEAVAEAILFAAEHPKRDMYIGSQAKAIAMLGALFPRLTDRLMEKIMYHSQHAERPSNPREGHHHHHH | soluble |
| MVGHVLYGWRDRPRRGEVDYPHTENIRMGHTWDSKRDVSKFDKSWSDQNIVDAIVATLENPDYALSGKVKRVVWKDIHGTTVRVSYNVCLMVGVISDRAYSDTPDRKAKRIVE | not soluble |
| MGSDKIHHHHHHMKKLLFIVNVDWFFISHRLPIAIDALKKGYTVTIACHFTSHKQELIDMGFNVLEIPFSRSGAGILSELNTLKCIRKVINDVNPSLIHAVTIKPVLYTGLVLKSINRNIPFVAAISGLGYVFTASTLRAKLTRFIASAFYKVALSQKYKMVIFQNTSDENILTKVAKLESSDKFLIKGSGADLSVYNFSPENLDNRTSIVMACRLLREKGVYVYVDAAKLVKEHFPEAEFLLVGTPDLENPNTVKQVEIDQWVSDGTIKYLGHRNDIPSIFANSNIVCLPSFYGEGVPKVLIEAAACGRAIVTTDNPGCKDAIINEVTGIAVPVRDAQSLALAIIKLLDDPALRISMGKKGRSFAEQEFDVRAVVTKHLDIYNELLQK | not soluble |
| MGSDKIHHHHHHMTESSDYESVQVFIGVDVGKDTHHAVAINRSGKRLFDKALPNDENKLRSLISDLKQHGQILLVVDQPATIGALPVAVARSEGVLVGYLPGLAMRRIADLHAGEAKTDARDAAIIAEAARTLPHALRTLKLADEQIAELSMLCGFDDDLAAQTTQASNRILGLLTQIHPAPERVLGPRLEHPAVLDLLQRYPSPEKLASLGEKKLAAQLCKLAPRLGKRLAADIAQALAEQTVVVPGTNAAAVVLPRLALQLITLRKQRDEVALEVEQRVLAHPLYPVLTSMPGVGVRTAARLLTEVACRAFASAAHLAAYAGLAPVTRRSGSSIRGEHPSRRGNKALKRALFLSAFTALRDPLSRAYYTRKMSQGKRHNQVLIALARRRCDVLFAMMRDGTFYTPQGS | not soluble |
| MSLAQIDSLFVTRLYRAALSEHGPKIDPQEMEASCIAIAEDDEAGQDWCEENGYPGYTSYASLTDLPWRFPIFADLVKSLDAHVAAFAQDLELNLDGRDLKLEDLWINILPEGGTHASHIHPHSVISGTTYVSMPDGASALKLEDPRHAMMMAHPPRTKDCRRELRSFVYEAPNVGDVLLWESFIRHEVPMNMAEDERISVSFNYAWAEGHHHHHH | soluble |
| MGSDKIHHHHHHMKRVKEQIKYLALLAICLLSGCSDFLDSYNPSAVTDDFYNTKEGQQKLLTDINARYRNVFNTGELQYYGTDIYMAISEEPAERMFNGYDKTFNSTAPIVGDYWKVLYKIVQESNILLNRCTPDIAGSDYTSLTAQARFFRAMAYYYLVETFGPVPLLTEENTSVIQQAERTGEQAIYTFIITELNDIKDKLDMTTISAGKVTNAAVIHFLGKMYLTRAYKSFAETDDFSNAATTFDLLVENPASGYALQENYAALFDENNQANSEVIWAIQYGLDKNYRGDGNPQQAQFGFNIVALEPDLFIKNQNDYSSVSRKYWVNPKAHELYTDPEADTRYDATFKREYYINNPDNADYGKLGIYFPRWNDKSGMSNNAKRFYPFKQDDEYVWYPQSTALPVLETASDRMPMVRKFSDTKIQWGEGGSREDVIFRLGDTYLLCAEAYLGAGNKKLALERINSIRKRAAKDATAYEAMKLTDLDINVIMDERARELMGEHDRWFDLKRTQTLLTRVPAYNPFVVKYDNLNKNHLVRPIPQDERNKVDGLSQNEGY | not soluble |
| MSLKRYRTLLFDVDDTILDFQAAEALALRLLFEDQNIPLTNDMKAQYKTINQGLWRAFEEGKMTRDEVVNTRFSALLKEYGYEADGALLEQKYRRFLEEGHQLIDGAFDLISNLQQQFDLYIVTNGVSHTQYKRLRDSGLFPFFKDIFVSEDTGFQKPMKEYFNYVFERIPQFSAEHTLIIGDSLTADIKGGQLAGLDTCWMNPDMKPNVPEIIPTYEIRKLEELYHILNIENTVSEGHHHHHH | soluble |
| MASPISHSSHENASGKYGYGDESQHGKNFHQKAEHSGHEAKEKGYSQDGKAADHDALHKDAAEHKQNKEAHQSGSGNKYVDDASNYNKDVKTKTFGFFDYRYVQPQYHMEQYHTDEKHANKYAGDEHNAGQQHKDNGGYHADGHQGYDKAQEKHGASHTNYGNEDAGHKSKYDDNEGKYGDHTDGYYNKGYDNYGQGHDSESYQPSYYQPKPKYYGGHQSHYQPSARHSSPYQGDQYYGYEAPHY | not soluble |
| MANFIEKITYLGTPAIKAGNEHLEMIVVPEWGSNVISLVDKTTNVQLLREPETAESFHDTPTLYGIPILFPPNRISDGTFSFRGRTYHFDINEKDKHNHLHGFLYHEKWNVVTTKQTDEGVIVETEIDLSELPHVQKQFPHHAVVRMTYTIKENTLFKHATVMNKGKEAFPWGIGYHTTFIFPAESSLFSLTADQQWELDERLLPTGKLMDVPYKEALHEGMDLRHKQLDDVFLSSYQKRGGENQAVIYHQHAHISIIYKADEQFKHWVVYNADGKQGYLCPEPYTWVTNAVNLDLPSSLTGLQVLEPGEETTAKSSITIELNHQLEHHHHHH | soluble |
| SRRLGKSLGINSIPCKFCSYDCVYCQVGRTINKTIERREFYSPEDIFKSVEERIGKLNNEKIDYLTFVADGEPTLDINLSKEVEMLRDFDIPIAIITNSSLIWREDVRNDILNFDLVSFKVDSVDEKIWREINRPHKDLVLDKILEGMIAFRDNYKGELITETMILGSIKYTEESIIKTAEFLKELNPNKCYLNTPIRPPSEKYIKPPKIEVITKILAIFNEIIGKNKIKLLGKFE | not soluble |
| SLSEKVIDMYKSENCGCCSLWGKAMEKDGFEVRTHIMNDQALSALKEKHAIPAGLRSCHTAVAGNLIIEGHVPATTIHKAMQSGSGIYGLATPGMPAGSPGMEMGARKEAYDVIAFSPDGSKKVFQRIE | soluble |
